In patent US20160053248A1, “SYSTEMS AND METHODS FOR EVOLVING ENZYMES WITH DESIRED ACTIVITIES” (Potomac Affinity Proteins, LLC, priority 2009, published 2016):

What was measured:
[1] = system: Dabcyl-EEDKLFRAL-SATE(EDANS)G; assay: Transient state kinetics with self-quenched FRET peptide: deacylation; type: biochemical; conditions: SBT189 in 50 mM azide
Description: The deacylation reaction and product release: A self-quenched FRET peptide that becomes highly fluorescent when cleaved (Dabcyl-EEDKLFRAL-SATE(EDANS)G (SEQ ID NO:16)) was synthesized. This peptide has been used to determine transient state kinetic parameters. Deacylation of SBT189 in 50 mM azide is faster (3.3 s^−1) than the wild type counterpart (1.8 s^−1). The rate of product (Dabcyl-EEDKLFRAL; (SEQ ID NO:17)) release is 6 s^−1 and Kp is 1.2 μM. Product binding is not influenced by azide concentration. Strong product binding of subtilisin-phage to GA-PCOGNATE- is used for the collection of active mutants in the release step in phage selection (see FIG. 5). Binding is constitutive at this step, however, and is not used to increase selectivity.

[2] = system: GA-PLFRAL-S-GB; assay: Acylation kinetics (GB release) of pre-formed enzyme-substrate complex monitored by fluorescence; type: biochemical
Source text: In panels A-C, RSUB1(AF350) represents subtilisin SBT189 conjugated to AF350).
The acylation reaction: Step 2 describes conversion of the ternary complex into an acyl-enzyme with the concomitant release to the C-terminal portion of the substrate. With substrates used in phage display, the GB domain is released concomitantly with the acylation step. If a fluorescent reporter group is attached to subtilisin, a decrease in energy transfer enables time-dependent quantitation of acylation.

[3] = system: GA-PFRAL-S-GB; assay: Cleavage kinetics of GA-PFRAL-S-GB by position 166 mutant versus parent enzyme; type: biochemical; conditions: no azide
Description: Mutants were selected that cleave the substrate GA-PFRAL-S-GB in response to azide. Phage were bound to the GA-PFRAL-S-GB substrate and collected on IgG-Sepharose. The ability to hydrolyze the fusion protein is selected by washing the beads in 1 mM azide for 5 minutes in the release step. Phage are therefore released or retained from the resin based on the kinetics with which they cleave GA-PFRAL from GB under the triggering condition. Released phage were collected on HSA-Sepharose, acid eluted, neutralized, used to infect fresh E. coli cells, plated out, and colonies counted. Three cycles of selection were carried out. After three rounds of selection, the consensus amino acid at position 166 was threonine. The kinetic properties of the T166 mutant were compared to parent enzyme (SBT189), which has a serine at 166. The T166 mutant hydrolyzed GA-PFRAL-S-GB 1.5-times faster than SBT 189 in 1 mM azide. […] Thus the ratio of triggered rate to intrinsic rate was increased 5-fold by optimizing a single amino acid position in the S1 subsite. This ratio is a quantitative measure of how tightly the enzyme is regulated by the trigger.

[4] = system: GB-LFRAL-SA-GFP; assay: Digestion of GB-LFRAL-SA-GFP fusion protein in E. coli extract (protein gel, MALDI-MS); type: biochemical; conditions: 20 μM fusion protein, 50 nM SBT189, 10 mM azide, 0.1M KPi, pH 7.2, 22° C.
Description: In order to evaluate sequence specificity of SBT189 for the cognate sequence identified by phage display, a gene was constructed to direct the synthesis of a fusion of the 56 amino acid B domain (GB) of streptococcal Protein G to a linker comprising the cognate sequence LFRAL-SA (SEQ ID NO:5) followed by GFP. Accordingly, the protein is denoted “GB-LFRAL-SA-GFP”.
Timepoints were collected as indicated. The fusion protein (20 μM) was mixed with 50 nM of SBT189 in 10 mM azide, 0.1M KPi, pH 7.2, at 22° C.

[5] = molecular target: subtilisin; conditions: competitive inhibitor of active subtilisin; cited from earlier work

Molecule | deacylation rate [1] | rate of GB release ([2]; 0.1M KPO4, pH 7.2, no azide, 22° C.) | rate of GB release ([2]; saturating azide) | azide dependent rate enhancement ([2]; saturating azide versus no azide) | cleavage rate in the absence of azide [3] | processing of the fusion protein [4] | Ki [5]
SBT189: D32A mutant of subtilisin, azide-triggered protease (SEQ ID NO: 27) (protein, Subtilisin related sequence) AKCVSYGVAQIKAPALHSQGYTGSNVKVAVLASGIDSSHPDLNVAGGASFVPSETNPFQDNNSHGTHVAGTVLAVAPSASLYAVKVLGADGSGQASWIINGIEWAIANNMDVINMSLGSPSGSAALKAAVDKAVASGVVVVAAAGNSGTSGSSSTVSYPAKYPSVIAVGAVDSSNQRAPFSSVGPELDVMAPGVSICSTLPGGKYGALSGTSMASPHVAGAAALILSKHPNWTNTQVRSSLENTATKLGDSFYYGKGLINVEAAAQ | 3.3 s⁻¹ | 0.0019 s⁻¹ | 6.4 s⁻¹ | about 3300 fold | 0.12 min⁻¹ | correctly and specifically processed | –
77 amino acid prodomain: 77 amino acid subtilisin prodomain (SEQ ID NO: 25) (protein, listed as Bacillus amyloliquefaciens) AGKSNGEKKYIVGFKQTMSTMSAAKKKDVISEKGGKVQKQFKYVDAASATLNEKAVKELKKDPSVAYVEEDHVAHAY | – | – | – | – | – | – | 540 nM
